Measured values from US20230056252A1 (Gilead, published 2023).
Substitutions are numbered along the chain they refer to. In names and notes the source's numbering stands.

B1: hPGT121.66 AAS + W/huSP34.3.8 scFv AAS + SAV + R (bispecific antibody, human IgG1, lambda, L234A L235A)
chain: EVQLVESGGGLVQPGGSLRLSCAASGFTFNTYAMNWVRQAPGKGLEWVGRIRSKYNNYATYYADSVKGRFTISRDDSKNSLYLQMNSLRTEDTAVYYCVRHGNFGHSYVSWFAYWGQGTLVTVSSGGGGSGGGGSGGGGSGGGGSQAVVTQEPSLTVSPGGTVTLTCGSSTGAVTTGHYANWVQQKPGQAPRGLIGGTNKRAPGVPARFSGSLLGGKAALTISGAQPEDEAEYYCALWYSNRWVFGGGTKLTVLEPKSSDKTHTCPPCPAPEAAGGPSVFLFPPKPKDTLMISRTPEVTCVVVDVSHEDPEVKFNWYVDGVEVHNAKTKPREEQYNSTYRVVSVLTVLHQDWLNGKEYKCKVSNKALPASIEKTISKAKGQPREPQVYTLPPSREEMTKNQVSLSCAVKGFYPSDIAVEWESNGQPENNYKTTPPVLDSDGSFFLVSKLTVDKSRWQQGNVFSCSVMHEALHNRYTQKSLSLSPGK
heavy: QMQLQESGPGLVKPSETLSLTCSVSGASISDSYWSWIRRSPGKGLEWIGYVHKSGDTNYNPSLKSRVHLSLDTSKNQVSLSLTGVTAADSGKYYCARTLHGRRIYGIVAFNEWFTYFYMDVWGTGTQVTVSSASTKGPSVFPLAPSSKSTSGGTAALGCLVKDYFPEPVTVSWNSGALTSGVHTFPAVLQSSGLYSLSSVVTVPSSSLGTQTYICNVNHKPSNTKVDKKVEPKSCDKTHTCPPCPAPEAAGGPSVFLFPPKPKDTLMISRTPEVTCVVVDVSHEDPEVKFNWYVDGVEVHNAKTKPREEQYNSTYRVVSVLTVLHQDWLNGKEYKCKVSNKALPASIEKTISKAKGQPREPQVYTLPPSREEMTKNQVSLWCLVKGFYPSDIAVEWESNGQPENNYKTTPPVLDSDGSFFLYSKLTVDKSRWQQGNVFSCSVMHEALHNHYTQKSLSLSPGK
light: not shown
B2: huSP34.25.8 scFv AAS + SAV + R (Fc fusion)
chain: B1 chain with N30S, T60A, D64A, G68S, S80T
notes: also called T57A, G65S; T57A + G65S
B3: huSP34.26.8 scFv AAS + SAV + R (Fc fusion)
chain: B1 chain with R19S, N30S, T60A, D64A, S80T
notes: also called R19S, T57A; R19S + T57A
B4: huSP34.14.8 scFv AAS + SAV + R (Fc fusion)
chain: B1 chain with R19S, N30S, D64A, S80T
notes: also called R19S
B5: huSP34.28.8 scFv AAS + SAV + R (Fc fusion)
chain: B1 chain with R19S, N30S, D64A, G68S, S80T
notes: also called R19S, G65S; R19S + G65S
B6: huSP34.27.8 scFv AAS + SAV + R (Fc fusion)
chain: B1 chain with R19S, N30S, T60E, D64A, S80T
notes: also called R19S, T57E; R19S + T57E
B7: huSP34.19.8 scFv AAS + SAV + R (Fc fusion)
chain: B1 chain with N30S, D64A, S80T, Q84E
notes: also called Q81E
B8: huSP34.33.8 scFv AAS + SAV + R (Fc fusion)
chain: B1 chain with N30S, D64A, G68S, S80T, Q84E
notes: also called G65S, Q81E; G65S + Q81E
B9: hPGT121.66 AAS + W/huSP34.34.3 scFv AAS + SAV + R (bispecific antibody, human IgG1, lambda, L234A L235A)
chain: not shown
heavy: B1 heavy
light: not shown
B10: hPGT121.66 AAS + W/huSP34.34.12scFv AAS + SAV + R (bispecific antibody, human IgG1, lambda, L234A L235A)
chain: B1 chain with D64A, R89K, V95M, E152P, G204W, V205T, L214S
heavy: B1 heavy
light: not shown
B11: hPGT121.66 AAS + W/huSP34.34.10 scFv AAS + SAV + R (bispecific antibody, human IgG1, lambda, L234A L235A)
chain: B1 chain with D64A, R89K, V95M, E152P, L214S
heavy: B1 heavy
light: not shown
B12: hPGT121.66 AAS + W/huSP34.34.11 scFv AAS + SAV + R (bispecific antibody, human IgG1, lambda, L234A L235A)
chain: B1 chain with D64A, R89K, V95M, I222L, R242L
heavy: B1 heavy
light: not shown
B13: hPGT121.66 AAS + W/huSP34.3.4 scFv AAS + SAV + RF (bispecific antibody, human IgG1, lambda, L234A L235A)
chain: B1 chain with G177S, N199S, G204W, V205T, I222L, N241A, R242L, Y475F
heavy: B1 heavy
light: not shown
notes: also called 258
B14: hPGT121.66 AAS + W/huSP34.3.13scFv AAS + SAV + R (bispecific antibody, human IgG1, lambda, L234A L235A)
chain: B1 chain with N199S, K200N
heavy: B1 heavy
light: not shown
B15: hPGT121.66 AAS + W/huSP34.13.8 scFv AAS + SAV + R (bispecific antibody, human IgG1, lambda, L234A L235A)
chain: B1 chain with N30S, D64A, S80T
heavy: B1 heavy
light: not shown
notes: also called 261
B16: hPGT121.66 AAS + W/huSP34.3.6scFv AAS + SAV + RF (bispecific antibody, human IgG1, lambda, L234A L235A)
chain: B1 chain with E152P, N199S, K200N, L214S, N241A, Y475F
heavy: B1 heavy
light: not shown
notes: also called 259

How the values were obtained:
[1] = target: T1, CD3 expressed on cell-surface of primary human T cells (human, UniProt P07766 23-207; P04234 22-171); experiment: flow cytometry on PBMCs, % anti-huIgG+ CD8+ cells, donor hu 151
T1 construct: also called cell-surface CD3; human CD3
T1 sequence (P07766 23-207 limits assumed, chain 1 of 2): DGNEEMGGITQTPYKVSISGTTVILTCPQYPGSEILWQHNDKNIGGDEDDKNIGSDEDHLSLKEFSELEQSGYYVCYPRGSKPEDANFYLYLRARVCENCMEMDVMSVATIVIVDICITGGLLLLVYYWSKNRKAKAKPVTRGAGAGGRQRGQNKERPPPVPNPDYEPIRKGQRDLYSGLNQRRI
T1 sequence (P04234 22-171 limits assumed, chain 2 of 2): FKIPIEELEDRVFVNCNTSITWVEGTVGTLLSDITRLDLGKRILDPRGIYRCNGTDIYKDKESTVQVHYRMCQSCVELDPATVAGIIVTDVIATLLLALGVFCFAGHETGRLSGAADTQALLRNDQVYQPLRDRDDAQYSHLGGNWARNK
Description: (§1) Briefly, PBMCs from healthy human donors and healthy rhesus or cynomolgus monkey donors were incubated with different concentrations of HIV×CD3 bispecific molecules for 1 hour at RT. […] Cells were then washed, fixed/permeabilized, and analyzed on BD LSRFortessa. The percentage of α-huIgG-APC-positive CD4+ and CD8+ T cells and the mFI of the α-huIgG-APC of CD4+ and CD8+ cells were collected, and data analyzed using GraphPad Prism.

[2] = target: T1, CD3 expressed on cell-surface of …; experiment: flow cytometry on PBMCs, % anti-huIgG+ CD8+ cells, donor hu 340
Description: as §1

[3] = target: T1, CD3 expressed on cell-surface of …; experiment: flow cytometry on PBMCs, % anti-huIgG+ CD4+ cells, donor hu 340
Description: as §1

[4] = target: CD3 on rhesus monkey T cells in PBMCs (rhesus monkey); experiment: flow cytometry on PBMCs, % anti-huIgG+ CD4+ cells, donor rh 3563
Sequence of CD3 on rhesus monkey T cells in PBMCs (rhesus monkey) (P16003 26-458): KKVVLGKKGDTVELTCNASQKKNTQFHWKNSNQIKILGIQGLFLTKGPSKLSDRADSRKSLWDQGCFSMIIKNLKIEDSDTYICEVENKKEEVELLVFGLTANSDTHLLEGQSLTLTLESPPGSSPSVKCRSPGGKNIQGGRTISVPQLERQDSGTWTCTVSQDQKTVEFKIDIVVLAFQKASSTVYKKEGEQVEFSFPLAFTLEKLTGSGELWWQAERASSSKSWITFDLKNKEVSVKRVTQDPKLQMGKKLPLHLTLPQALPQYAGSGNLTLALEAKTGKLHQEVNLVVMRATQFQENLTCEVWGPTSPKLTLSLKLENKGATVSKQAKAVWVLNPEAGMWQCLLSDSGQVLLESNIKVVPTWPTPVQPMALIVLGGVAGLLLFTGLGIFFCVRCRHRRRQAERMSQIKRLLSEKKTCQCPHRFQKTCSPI

[5] = target: T1, CD3 expressed on cell-surface of …; experiment: flow cytometry on PBMCs, % anti-huIgG+ CD4+ cells, donor hu 151
[6] = target: CD3 on rhesus monkey T cells in PBMCs (rhesus monkey); experiment: flow cytometry on PBMCs, % anti-huIgG+ CD4+ cells, donor rh 3483
[7] = target: CD3 on rhesus monkey T cells in PBMCs (rhesus monkey); experiment: flow cytometry on PBMCs, % anti-huIgG+ CD8+ cells, donor rh 3483
[8] = target: CD3 on rhesus monkey T cells in PBMCs (rhesus monkey); experiment: flow cytometry on PBMCs, % anti-huIgG+ CD8+ cells, donor rh 3563
[9] = target: T2, MabSelect SuRe (engineered Protein A); experiment: 500 ml Expi293 expression, MabSelect SuRe capture and cation exchange; purified homodimer yield relative to parent
T2 construct: also called MabSelect SuRe column
Description: 500 ml of Expi293 cells were transfected with 0.5 mg DNA encoding selected huSP34 scFv-Fc Protein A knockout variants according to manufacturer's protocol. Four days post transfection, the cell-free clarified supernatant was collected and loaded to a MabSelect™ SuRe™ (Cytiva Life Sciences) column. Afterwards the column was washed with a low salt buffer of 25 mM Tris HCl pH 7.5, 25 mM NaCl for 10 column volumes (CV), then high salt wash of 25 mM Tris HCl pH 7.5, 500 mM NaCl for 5CV to remove non-specific binding, and finally washed with a low salt wash of 25 mM Tris HCl pH 7.5, 25 mM NaCl for 10CV. To elute the antibody, an isocratic elution step of 100 mM sodium acetate pH 3.7 was performed. The eluted pool was neutralized to pH 6.0 with 1 M Tris HCl pH 9.0, and subjected to a cation ion purification, HiTrap SP HP (Cytiva Life Sciences) to further remove impurities. The cation captured protein was washed with 10 mM sodium phosphate pH 7.0 for 10CV, then eluted in 0-30% gradient of 10 mM sodium phosphate pH 7.0, 1M NaCl for 50CV to separate the desired two targeting arm antibody (heterodimer) from the one targeted arm antibody (homodimer). Followed with gradient elution from 30-100% of 10 mM sodium phosphate pH 7.0, 1 M NaCl for 10CV to remove aggregation or homodimer in higher isoelectric point (pI). All proteins were formulated into 20 mM histidine pH 5.8 by dialysis, added additive of sucrose/tween-80, sterile filtered, and stored at 4° C. Concentration of the formulated protein was measured by A280. Purity was assessed as percent monodispersed by analytical size-exclusion chromatography. Identity of the bispecific antibody was determined by Mass Spec (MS).

[10] = target: T1, CD3 expressed on cell-surface of …; experiment: flow cytometry on human PBMCs, CD4+ cells, donor 4574
Description: (§2) Briefly, peripheral blood mononuclear cells (PBMCs) were incubated with different concentrations of HIV×CD3 bispecific molecules for 1 hour at RT. […] Cells were then washed, fixed/permeabilized, and analyzed using BD LSRFortessa according to the manufacturer's protocol. The percentage of α-huIgG-APC-positive CD4+ and CD8+ T cells and the mean fluorescence intensity of the α-huIgG-APC of CD4+ and CD8+ cells were collected, and data analyzed using GraphPad Prism.
(§3) Binding experiments were performed using PBMCs from two healthy human donors.

[11] = target: T1, CD3 expressed on cell-surface of …; experiment: flow cytometry on human PBMCs, CD8+ cells, donor 3761
Description: as §2, §3

[12] = target: T1, CD3 expressed on cell-surface of …; experiment: flow cytometry on human PBMCs, CD4+ cells, donor 3761
Description: as §2, §3

[13] = target: T1, CD3 expressed on cell-surface of …; experiment: flow cytometry on human PBMCs, CD8+ cells, donor 4574
Description: as §2, §3

[14] = target: T1, CD3 expressed on cell-surface of …; experiment: cell-based or functional assay

| Binder | EC50 [1] [µg/mL] | EC50 [2] [µg/mL] | EC50 [3] [µg/mL] | EC50 [4] [µg/mL] | EC50 [5] [µg/mL] | EC50 [6] [µg/mL] | EC50 [7] [µg/mL] | EC50 [8] [µg/mL] | scFv-Fc Homodimer Yield Relative to WT (e.g. Protein A binding) [9] [%] | also measured |
| --- | --- | --- | --- | --- | --- | --- | --- | --- | --- | --- |
| B1 | 0.04 | 0.06 | 0.05 | 0.02 | 0.03 | 0.02 | 0.04 | 0.08 |  |  |
| B2 |  |  |  |  |  |  |  |  | 1 |  |
| B3 |  |  |  |  |  |  |  |  | 8 |  |
| B4 |  |  |  |  |  |  |  |  | 21 |  |
| B5 |  |  |  |  |  |  |  |  | 1.5 |  |
| B6 |  |  |  |  |  |  |  |  | 8 |  |
| B7 |  |  |  |  |  |  |  |  | 86 |  |
| B8 |  |  |  |  |  |  |  |  | 0.7 |  |
| B9 | 1.62 | 1.21 | 1.64 | 1.48 | 1.41 | 0.93 | 2.35 | 3.52 |  |  |
| B10 | 0.85 | 0.88 | 0.57 | 0.68 | 0.51 | 0.46 | 0.93 | 1.24 |  |  |
| B11 | 0.07 | 0.08 | 0.06 | 0.05 | 0.06 | 0.03 | 0.1 | 0.16 |  |  |
| B12 | 0.1 | 0.13 | 0.09 | 0.07 | 0.08 | 0.06 | 0.11 | 0.22 |  |  |
| B13 |  |  |  |  |  |  |  |  |  | EC50 [10]: 5.7 µg/mL; EC50 [11]: 1.3 µg/mL; EC50 [12]: 5.1 µg/mL; EC50 [13]: 4.8 µg/mL |
| B14 | 0.09 | 0.14 | 0.1 | 0.08 | 0.07 | 0.06 | 0.11 | 0.21 |  |  |
| B15 | 0.08 | 0.1 | 0.07 | 0.07 | 0.06 | 0.07 | 0.13 | 0.2 |  |  |
| B16 |  |  |  |  |  |  |  |  |  | EC50 [10]: 1.4 µg/mL; EC50 [11]: 0.48 µg/mL; EC50 [12]: 0.65 µg/mL; EC50 [13]: 1.1 µg/mL; killing EC50, primary HIV-infected CD4+ cells, PBMC effector cells, isolate 657 [14]: 2.37 µg/mL; killing EC50, primary HIV-infected CD4+ cells, PBMC effector cells, isolate 7552 [14]: 0.123 µg/mL |
